Results reported in publication PMC5548745, “Agonist-induced dimer dissociation as a macromolecular step in G protein-coupled receptor signaling” (Nature Communications, 2017).

Legend:
[1] = circular dichroism of synthetic TM peptides; type: physicochemical; conditions: DDM detergent solution; lipophilic environment
Method: CD spectra were recorded using a J-810 spectropolarimeter (Jasco, Easton, MD, USA) in a 0.1 cm quartz cuvette. Far-UV CD spectra were collected over 190–260 nm. ITC measurements were carried out at 20 °C on an ITC (VP–ITC 200, MicroCal). 820 µM FZD6 TM5 and 165 µM FZD6 TM4 were dissolved in 0.5% DDM in water. 2 µl of TM5 peptide were injected into 260 µl TM4 during each titration. The ITC data were analyzed with the Origin 7.0 software.
Supplementary Figure 5: Circular dichroism (CD) and isothermal titration calorimetry (ITC) experiments for structural analysis of synthetic peptides resembling TM1, 4, 5 and mutant TM5 and of peptide-peptide interactions, related to Figure 3. Synthetic peptides (for sequence see Supplementary Fig. 9) resembling TM1 (a), 4 (b), 5 (c) and mutant TM5 (d) were used for CD experiments in triple distilled water with increasing DDM concentrations (0% DDM – black, 0.01% DDM – blue, 0.1% DDM – green and 0.5% DDM – red). (c)TM5 is unstructured in TDW and begins to gain structure at 0.1% DDM. It forms a clear α-helical structure in 0.5% DDM. The triple mutated TM5 (d) forms an α-helix in a much lower DDM concentration (0.01% DDM). […]

FZD6–FZD6 dimer = experiment: dcFRAP of V5-FZD6-mCherry/FZD6-GFP (FZD6 dimerization); type: cell-based, human; conditions: HEK293; for dimerization by CL-induced decrease of mobile fraction: GFP-tagged mutant with wt V5-FZD6-mCherry, anti-V5/avidin crosslinking
Method: For dual color FRAP experiments, cells grown in four compartment 35 mm glass bottom dishes were washed three times with BE buffer[19] (150 mM NaCl, 2.5 mM KCl, 10 mM HEPES, 12 mM glucose, 0.5 mM CaCl2, and 0.5 mM MgCl2). Then, the cells were incubated at RT for 30 min with biotin-conjugated goat polyclonal anti-V5 antibody (Bethyl) diluted 1:100 in BE buffer supplemented with 2.5% bovine serum albumin. For antibody-mediated cross-linking, avidin was added and incubated for 15 min and washed two times with BE buffer before the experiments were performed. In Fig. 4, dcFRAP experiments are presented that employ chemical surface crosslinking to visualize assembly of FZD6 with DVL or heterotrimeric G proteins according to previously published protocols. Live cell imaging experiments were carried out using a Zeiss 710 laser scanning microscope. Images were acquired using a 40×, 1.2 NA C-Apochromat objective and the 488 nm and the 561 nm laser lines were used to excite GFP and mCherry fluorophores, respectively. Photobleaching was performed by 100% laser illumination of a 1.80 × 1.80 µm area placed over the cell plasma membrane. Fluorescence was measured pre- and post-bleach using low-intensity illumination for a total time period of 100 s. Average pixel intensity was measured using the ZEN2013 software, corrected for background fluctuations and bleaching artifacts and normalized to pre-bleached intensity. The recovered mobile fraction (F m) was calculated as follows: F m = (I P–I 0)/(I I–I 0), where I I is the initial intensity measured prior to bleaching, I 0 is the immediate fluorescence intensity post-bleaching and I P is intensity value post-bleaching. The mobile fraction was defined by the average of the fluorescence recovery assessed between time 85–101 s (including pre-bleach measurements). We excluded experiments in which the extracellularly tagged receptors were not sufficiently immobilized after the crosslinking procedure (cutoff at 40% crosslinking-induced reduction in mobile fraction). Kinetic determination of mobile fractions of crosslinked V5-FZD6-mCherry and FZD6-GFP with WNT stimulation over time were performed in one cell culture well. Measurements for each time point were performed on separate cells.
Statistical and graphical analysis was performed using Graph Pad Prism 5 software. Data were analyzed by two-tailed t-test or one-way ANOVA with Fisher’s least significant difference post hoc analysis. Curve fitting of FRAP data was done with a two-phase association nonlinear function using the least square fit. Data for receptor titration in the presence of C59 and output to P-ERK1/2 in Fig. 6h was fit to a linear regression model. All experiments were repeated at least three times in independent experiments (not representing technical replicates). For single cell analysis (dcFRAP), the number of the individual ROIs obtained from several cells in at least three independent experiments is provided in the figure legends. Data from individual ROIs are summarized for data presentation providing the sum of independent observations. Significance levels are given as: *P < 0.05; **P < 0.01; ***P < 0.001. Data in FRAP curves and bar graphs (FRAP) are presented as mean ± s.e.m.

KKKVWFHAVAWGTPGFLTVMLLAMNKKK [TM4, synthetic peptide of FZD6 transmembrane helix 4]
secondary structure in detergent (CD) [1]: structured and α-helical

B1: DVL2-MYC: overexpressed MYC-tagged DVL2 (protein, UniProt O14641 1-736, looked up)
Segment polarity protein …: MAGSSTGGGGVGETKVIYHLDEEETPYLVKIPVPAERITLGDFKSVLQRPAGAKYFFKSMDQDFGVVKEEISDDNARLPCFNGRVVSWLVSSDNPQPEMAPPVHEPRAELAPPAPPLPPLPPERTSGIGDSRPPSFHPNVSSSHENLEPETETESVVSLRRERPRRRDSSEHGAGGHRTGGPSRLERHLAGYESSSTLMTSELESTSLGDSDEEDTMSRFSSSTEQSSASRLLKRHRRRRKQRPPRLERTSSFSSVTDSTMSLNIITVTLNMEKYNFLGISIVGQSNERGDGGIYIGSIMKGGAVAADGRIEPGDMLLQVNDMNFENMSNDDAVRVLRDIVHKPGPIVLTVAKCWDPSPQAYFTLPRNEPIQPIDPAAWVSHSAALTGTFPAYPGSSSMSTITSGSSLPDGCEGRGLSVHTDMASVTKAMAAPESGLEVRDRMWLKITIPNAFLGSDVVDWLYHHVEGFPERREARKYASGLLKAGLIRHTVNKITFSEQCYYVFGDLSGGCESYLVNLSLNDNDGSSGASDQDTLAPLPGATPWPLLPTFSYQYPAPHPYSPQPPPYHELSSYTYGGGSASSQHSEGSRSSGSTRSDGGAGRTGRPEERAPESKSGSGSESEPSSRGGSLRRGGEASGTSDGGPPPSRGSTGGAPNLRAHPGLHPYGPPPGMALPYNPMMVVMMPPPPPPVPPAVQPPGAPPVRDLGSVPPELTASRQSFHMAMGNPSEFFVDVM
modifications: MYC tag
effect of altered DVL level on FZD6 dimer formation (FZD6–FZD6 dimer; V5-FZD6-mCherry/FZD6-GFP, pan-DVL siRNA or overexpressed DVL2-MYC): Absence of a role for DVL and G proteins in FZD6 dimer formation

B2: FZD6 dimer control mutant: FZD6 with D365E, R368K, Y369F (protein)
chain: HSLFTCEPITVPRCMKMAYNMTFFPNLMGHYDQSIAAVEMEHFLPLANLECSPNIETFLCKAFVPTCIEQIHVVPPCRKLCEKVYSDCKKLIDTFGIRWPEELECDRLQYCDETVPVTFDPHTEFLGPQKKTEQVQRDIGFWCPRHLKTSGGQGYKFLGIDQCAPPCPNMYFKSDELEFAKSFIGTVSIFCLCATLFTFLTFLIDVRRFRYPERPIIYYSVCYSIVSLMYFIGFLLGDSTACNKADEKLELGDTVVLGSQNKACTVLFMLLYFFTMAGTVWWVILTITWFLAAGRKWSCEAIEQKAVWFHAVAWGTPGFLTVMLLAMNKVEGDNISGVCFVGLYDLEASKFFVLLPLCLCVFVGLSLLLAGIISLNHVRQVIQHDGRNQEKLKKFMIRIGVFSGLYLVPLVTLLGCYVYEQVNRITWEITWVSDHCRQYHIPCPYQAKAKARPELALFMIKYLMTLIVGISAVFWVGSKKTCTEWAGFFKRNRKRDPISESRRVLQESCEFFLKHNSKVKHKKKHYKPSSHKLKVISKSMGTSTGATANHGTSAVAITSHDYLGQETLTEIQTSPETSMREVKADGASTPRLREQDCGEPASPAASISRLSGEQVDGKGQAGSVSESARSEGRISPKSDITDTGLAQSNNLQVPSSSEPSSLKGSTSLLVHPVSGVRKEQGGGCHSDT
modifications: left off: GFP, C-terminal, kept
notes: FZD6 with D365E, R368K, Y369F
dimerization by CL-induced decrease of mobile fraction (FZD6–FZD6 dimer): maintained the intrinsic ability of FZD6 to form dimers

B3: FZD6 F337A mutant: FZD6 with F337A mutation on TM4 (protein)
chain: HSLFTCEPITVPRCMKMAYNMTFFPNLMGHYDQSIAAVEMEHFLPLANLECSPNIETFLCKAFVPTCIEQIHVVPPCRKLCEKVYSDCKKLIDTFGIRWPEELECDRLQYCDETVPVTFDPHTEFLGPQKKTEQVQRDIGFWCPRHLKTSGGQGYKFLGIDQCAPPCPNMYFKSDELEFAKSFIGTVSIFCLCATLFTFLTFLIDVRRFRYPERPIIYYSVCYSIVSLMYFIGFLLGDSTACNKADEKLELGDTVVLGSQNKACTVLFMLLYFFTMAGTVWWVILTITWFLAAGRKWSCEAIEQKAVWFHAVAWGTPGALTVMLLAMNKVEGDNISGVCFVGLYDLDASRYFVLLPLCLCVFVGLSLLLAGIISLNHVRQVIQHDGRNQEKLKKFMIRIGVFSGLYLVPLVTLLGCYVYEQVNRITWEITWVSDHCRQYHIPCPYQAKAKARPELALFMIKYLMTLIVGISAVFWVGSKKTCTEWAGFFKRNRKRDPISESRRVLQESCEFFLKHNSKVKHKKKHYKPSSHKLKVISKSMGTSTGATANHGTSAVAITSHDYLGQETLTEIQTSPETSMREVKADGASTPRLREQDCGEPASPAASISRLSGEQVDGKGQAGSVSESARSEGRISPKSDITDTGLAQSNNLQVPSSSEPSSLKGSTSLLVHPVSGVRKEQGGGCHSDT
dimerization by CL-induced decrease of mobile fraction (FZD6–FZD6 dimer): exhibited a reduced ability to dimerize
